From patent US20230096030A1 (UCB, published 2023) come the findings set out here.

The target in assay [1] is T1, recombinant human CD9 long extracellular loop 2-human Fc fusion protein (10015-CD, R&D Systems) (human, UniProt P21926 112-195).
T1 construct: Bought reagent; the order here follows the printed name; also called CD9-loop2; long extracellular loop 2 peptide; not shown: human Fc
T1 sequence: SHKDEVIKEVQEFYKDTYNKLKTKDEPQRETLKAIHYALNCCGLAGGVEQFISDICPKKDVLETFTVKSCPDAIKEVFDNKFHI
The assay can be described thus: BLI (Octet RED384), CD9 loop 2-Fc on AHC biosensors, Fab-Y 10 µg/mL. The source says:
CD9 contains two extracellular loops: a short extracellular loop (loop 1: 34-55 in SEQ ID NO:2) and a long extracellular loop (loop 2: 112-195 in SEQ ID NO:2). We used biolayer interferometry to assess binding of our panel of CD9 Fab-Y antibodies (selected for binding to full length cell-expressed CD9) to the long extracellular loop 2 peptide using the Octet® RED384 System (FortéBio) with Anti-hlgG Fc Capture (AHC) Biosensors (FortéBio) at room temperature. Firstly, an array of 8 sensors was dipped in kinetics buffer (PBS 0.1%, BSA 0.02%, Tween 20) for 120 seconds to provide a baseline signal. Sensors were then moved to wells containing 200 μl of recombinant human CD9 long extracellular loop 2-human Fc fusion protein (10015-CD, R&D Systems®) at 2 μg/mL in kinetics buffer to immobilize the protein to the biosensor (100 seconds), followed by a second baseline step (180 seconds) in kinetics buffer to equilibrate the biosensors now coated with the CD9 long extracellular loop 2-human Fc fusion protein. No detachment of the peptide was observed during this step. Sensors were then dipped in wells containing one of the anti-CD9 Fab (10 μg/mL) to evaluate association of each antibody to CD9-loop2 (120 seconds), followed by dissociation in kinetics buffer (600 seconds). Anti-CD137 Fab-Y (11175) was used as negative control during the antibody association step. […]
On the technique in general: BLI is a label-free optical method that tracks binding on a fibre tip over time.

Assay [2] has as its target T2, full length cell-expressed CD9 (human, UniProt P21926 2-228).
T2 construct: also called human CD9
T2 sequence: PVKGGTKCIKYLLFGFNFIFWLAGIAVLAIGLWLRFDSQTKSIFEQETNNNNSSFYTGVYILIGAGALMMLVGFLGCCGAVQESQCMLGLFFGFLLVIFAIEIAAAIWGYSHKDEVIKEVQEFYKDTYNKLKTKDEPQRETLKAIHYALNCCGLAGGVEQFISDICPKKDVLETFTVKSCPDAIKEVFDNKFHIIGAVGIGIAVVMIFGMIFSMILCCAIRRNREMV
Briefly: selection on cells expressing CD9; method not described.

B1: anti-CD9 Fab-Y 7272 (Fab, V domains shown)
VH: QSLEESGGRLVTPGTPLTLTCTVSGFSLSSYAMGWVRQAPGKGLEWIGAIGSITATGYARWAKGRFSISKTSTTVDLKMTSPTTEDTATYFCAREIYVGSAYAFDIWGPGTLVTVSS
VL: AYDMTQTPASVEVAVGDTVTIKCQASQSISNYLAWYQQKPGQPPKLLIYLASTLASGVPSRFKGSGSGTEFTLTISDLECADAATYYCQQGYIDNVNKGFGGGTEVVVK
notes: Tested as Fab-Y: Fab with the GCN4 peptide (clone 7P14P) attached by a peptide linker to CH1; also called VR7272
For the molecule B1, the binding result in assay [1] and in assay [2] was “binds” each time.
